Tests used:
Experiment in all cases: double filter binding; 1 mM ciprofloxacin (modest effect); Double filter binding, 150 nM helicase hexamer, 4 nM ssDNA, 20 min inhibitor preincubation at 37 C; binding buffer not stated in the material (helicase buffer:)
Mcm467 = Mcm467 (UniProt P30665;P53091;P38132 1-933;1-1017;1-845); details: chain copies: 2;2;2; label: 5'-32P; single strand
Mcm2-7 = Mcm2-7 (UniProt P29469;P24279;P30665;P29496;P53091;P38132 1-868;1-971;1-933;1-775;1-1017;1-845); details: copies: 1;1;1;1;1;1; label: 5'-32P; single strand
[1] = target: SV40 large T antigen (TAg) (SV40, UniProt P03070 1-708); details: chain copies: 6; label: 5'-32P; single strand

Measured: binding result

Mcm467, sequence (P30665 whole entry, chain 1 of 3): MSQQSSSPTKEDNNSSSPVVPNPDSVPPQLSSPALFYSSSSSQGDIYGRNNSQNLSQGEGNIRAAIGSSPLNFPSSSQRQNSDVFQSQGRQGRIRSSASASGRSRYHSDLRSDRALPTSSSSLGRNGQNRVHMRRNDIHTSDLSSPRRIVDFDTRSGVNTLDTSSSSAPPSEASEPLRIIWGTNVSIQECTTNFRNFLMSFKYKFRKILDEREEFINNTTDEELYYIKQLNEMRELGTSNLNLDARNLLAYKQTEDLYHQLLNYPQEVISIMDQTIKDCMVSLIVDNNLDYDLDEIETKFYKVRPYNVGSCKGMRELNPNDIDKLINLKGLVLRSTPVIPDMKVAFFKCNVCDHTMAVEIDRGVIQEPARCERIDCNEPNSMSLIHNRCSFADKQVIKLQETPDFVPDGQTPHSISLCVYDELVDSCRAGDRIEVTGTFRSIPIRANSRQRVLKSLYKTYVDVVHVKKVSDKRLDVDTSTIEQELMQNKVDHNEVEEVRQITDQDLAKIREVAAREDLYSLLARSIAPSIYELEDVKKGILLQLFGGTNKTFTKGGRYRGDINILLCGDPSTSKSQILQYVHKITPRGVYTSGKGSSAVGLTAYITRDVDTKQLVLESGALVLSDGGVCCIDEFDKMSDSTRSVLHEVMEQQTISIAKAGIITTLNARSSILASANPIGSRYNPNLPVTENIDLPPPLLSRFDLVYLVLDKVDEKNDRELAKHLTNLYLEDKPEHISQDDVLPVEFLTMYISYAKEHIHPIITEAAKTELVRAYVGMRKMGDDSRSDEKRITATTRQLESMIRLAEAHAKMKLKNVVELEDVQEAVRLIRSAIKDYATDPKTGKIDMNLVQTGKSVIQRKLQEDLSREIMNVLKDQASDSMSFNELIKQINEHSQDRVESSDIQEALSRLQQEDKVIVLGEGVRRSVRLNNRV
Mcm467, sequence (P53091 whole entry, chain 2 of 3): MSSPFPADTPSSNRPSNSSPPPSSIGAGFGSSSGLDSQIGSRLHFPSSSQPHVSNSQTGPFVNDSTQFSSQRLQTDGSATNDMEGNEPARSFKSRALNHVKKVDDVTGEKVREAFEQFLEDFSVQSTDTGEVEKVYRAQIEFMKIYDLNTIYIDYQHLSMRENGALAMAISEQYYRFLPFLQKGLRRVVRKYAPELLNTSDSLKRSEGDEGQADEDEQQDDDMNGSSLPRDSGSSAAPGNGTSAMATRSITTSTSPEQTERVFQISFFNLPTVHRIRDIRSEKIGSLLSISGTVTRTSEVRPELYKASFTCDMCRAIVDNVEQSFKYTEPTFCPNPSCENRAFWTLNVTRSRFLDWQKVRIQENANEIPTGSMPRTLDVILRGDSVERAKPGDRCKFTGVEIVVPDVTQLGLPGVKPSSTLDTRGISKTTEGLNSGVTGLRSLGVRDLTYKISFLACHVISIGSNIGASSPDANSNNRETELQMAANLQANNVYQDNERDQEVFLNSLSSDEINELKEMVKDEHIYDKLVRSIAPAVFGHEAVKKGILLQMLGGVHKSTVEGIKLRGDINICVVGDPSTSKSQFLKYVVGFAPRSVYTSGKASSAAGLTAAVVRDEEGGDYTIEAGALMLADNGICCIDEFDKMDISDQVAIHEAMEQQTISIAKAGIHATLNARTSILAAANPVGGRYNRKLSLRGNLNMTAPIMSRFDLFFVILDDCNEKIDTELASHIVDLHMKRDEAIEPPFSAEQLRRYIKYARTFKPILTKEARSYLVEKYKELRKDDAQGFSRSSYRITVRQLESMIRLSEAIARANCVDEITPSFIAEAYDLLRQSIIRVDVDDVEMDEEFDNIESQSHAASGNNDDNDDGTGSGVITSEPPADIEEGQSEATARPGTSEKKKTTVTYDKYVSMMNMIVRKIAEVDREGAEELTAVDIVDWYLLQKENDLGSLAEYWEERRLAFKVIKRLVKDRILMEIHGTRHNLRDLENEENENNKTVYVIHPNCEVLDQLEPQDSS
Mcm467, sequence (P38132 whole entry, chain 3 of 3): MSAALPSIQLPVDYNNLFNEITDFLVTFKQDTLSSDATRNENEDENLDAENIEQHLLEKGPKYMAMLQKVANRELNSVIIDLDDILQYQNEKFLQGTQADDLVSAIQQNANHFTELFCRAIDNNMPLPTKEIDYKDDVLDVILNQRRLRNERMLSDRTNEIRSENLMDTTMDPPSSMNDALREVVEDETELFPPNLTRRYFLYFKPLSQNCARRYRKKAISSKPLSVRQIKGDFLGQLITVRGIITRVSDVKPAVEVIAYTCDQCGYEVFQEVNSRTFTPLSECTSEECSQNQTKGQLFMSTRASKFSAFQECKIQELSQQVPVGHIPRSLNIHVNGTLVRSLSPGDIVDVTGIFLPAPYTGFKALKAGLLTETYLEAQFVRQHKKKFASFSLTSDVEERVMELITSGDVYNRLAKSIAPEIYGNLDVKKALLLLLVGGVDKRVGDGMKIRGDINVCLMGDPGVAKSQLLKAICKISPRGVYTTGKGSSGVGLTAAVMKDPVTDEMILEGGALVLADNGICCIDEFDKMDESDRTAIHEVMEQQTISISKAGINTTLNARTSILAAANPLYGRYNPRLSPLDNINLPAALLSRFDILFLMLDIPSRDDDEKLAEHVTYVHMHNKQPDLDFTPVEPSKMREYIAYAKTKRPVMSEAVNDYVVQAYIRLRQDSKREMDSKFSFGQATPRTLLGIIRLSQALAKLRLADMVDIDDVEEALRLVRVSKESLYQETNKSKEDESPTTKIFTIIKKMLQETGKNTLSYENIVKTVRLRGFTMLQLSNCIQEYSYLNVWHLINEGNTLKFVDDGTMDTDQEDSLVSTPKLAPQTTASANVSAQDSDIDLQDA
SV40 large T antigen (TAg), sequence (P03070 whole entry): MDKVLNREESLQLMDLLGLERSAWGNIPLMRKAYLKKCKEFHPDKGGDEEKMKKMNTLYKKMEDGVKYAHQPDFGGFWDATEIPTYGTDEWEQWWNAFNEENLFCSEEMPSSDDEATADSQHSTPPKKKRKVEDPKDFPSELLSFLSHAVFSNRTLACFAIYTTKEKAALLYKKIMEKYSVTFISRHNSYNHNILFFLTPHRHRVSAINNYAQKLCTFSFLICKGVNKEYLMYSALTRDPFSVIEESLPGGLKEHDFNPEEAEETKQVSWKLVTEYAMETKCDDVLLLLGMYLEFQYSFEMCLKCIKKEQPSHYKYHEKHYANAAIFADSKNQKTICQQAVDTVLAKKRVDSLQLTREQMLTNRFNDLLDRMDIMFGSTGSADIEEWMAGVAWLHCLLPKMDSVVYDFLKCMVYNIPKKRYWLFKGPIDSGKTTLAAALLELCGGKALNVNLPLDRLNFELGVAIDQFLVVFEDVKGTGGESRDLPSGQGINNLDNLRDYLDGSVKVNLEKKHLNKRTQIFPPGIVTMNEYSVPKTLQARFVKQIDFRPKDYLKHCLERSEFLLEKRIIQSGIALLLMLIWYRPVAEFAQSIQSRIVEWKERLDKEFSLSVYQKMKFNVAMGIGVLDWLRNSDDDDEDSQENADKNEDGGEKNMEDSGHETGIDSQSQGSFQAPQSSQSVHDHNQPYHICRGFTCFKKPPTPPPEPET

TGTCTAATCCCGAAAGGCCCTGCCACTGAAATCAACACCTAAAGCATTGA (ssDNA) [oligo 826]
binds: Mcm467 | Mcm2-7 | [1]
